Test results reported in article PMC3025356, “Mechanism of the Ca^2+-Dependent Interaction between S100A4 and Tail Fragments of Nonmuscle Myosin Heavy Chain IIA” (Journal of Molecular Biology, 2011).

B1: M32 peptide (A1907-G1938 of human nonmuscle myosin heavy chain IIA) (peptide, UniProt P35579-1 1907-1938, looked up)
peptide: Ac-ADAMNREVSSLKNKLRRGDLPFVVPRRMARKG-NH2
notes: nonmuscle myosin heavy chain IIA (NM-MHC IIA), human, residues A1907-G1938; source: synthetic peptide, bought: Peptide 2.0, Inc
B2: M32 myosin peptide (NM-MHC IIA A1907-G1938) (peptide, UniProt P35579-1 1907-1938, looked up)
peptide: Ac-ADAMNREVSSLKNKLRRGDLPFVVPRRMARKG-NH2
notes: as for B1
B3: M200, C-terminal fragment of human NM-MHC IIA (residues Q1761-E1960) (domain or fragment)
chain: QINTDLNLERSHAQKNENARQQLERQNKELKVKLQEMEGTVKSKYKASITALEAKIAQLEEQLDNETKERQAACKQVRRTEKKLKDVLLQVDDERRNAEQYKDQADKASTRLKQLKRQLEEAEEEAQRANASRRKLQRELEDATETADAMNREISSLKNKLRRGDLPFVVPRRMARKGAGDGSDEEVDGKADGAEAKPAE
modifications: Parallel coiled-coil dimer. N-terminal … tag omitted. The paper prints V1913I, but by its own numbering (D1908-R1923, G1938, G1940, D1941) 1913 is E and the only adjacent Val is V1914, so …
B4: S100A4 (wild type, full-length) (natural protein)
chain: not shown
notes: S100A4, wild type, called full-length in the NMR experiment with M111; The tag and the vector are not described; also called Mts1; metastasin; source: E. coli BL21(DE3), purified (Ni-NTA, Superdex 75)

Key:
Settings in all cases: both partners purified
S100A4 (wild type) = biological target: T1, S100A4 (wild type) (UniProt P26447 1-101); assay: stopped-flow Quin-2 fluorescence (Ca2+ dissociation rate constant against [M32]); 10 uM S100A4 with Ca2+ premixed with M32 (0-50 uM), mixed with 100 uM Quin-2; kobs from single exponentials fitted against [M32] to a quadratic binding equation; apparent; legend says conditions as for Fig. 2c (taken as Fig. 5c: 100 mM NaCl, 10 mM Hepes, 100 uM Ca2+, pH 7.5, 20 C)
T1 construct: S100A4, wild type; predominantly a dimer under the conditions of the kinetic analysis; Concentrations are stated per monomer chain; only the Ni-NTA column is told; also called Mts1; metastasin; source: E. coli BL21(DE3), purified (Ni-NTA, Superdex 75 gel filtration)
T1 sequence (P26447 whole entry, one chain of several): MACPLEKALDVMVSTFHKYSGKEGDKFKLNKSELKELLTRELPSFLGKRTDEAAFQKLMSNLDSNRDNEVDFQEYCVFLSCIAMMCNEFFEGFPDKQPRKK

[1] = biological target: B4; assay: not stated; K0 of Scheme 1: binding in the absence of Ca2+; the experiment behind the limit is not told
[2] = biological target: B4; assay: fluorescence polarisation; competition: displacement of F-M16^N (5 μM) from S100A4 (5 μM) by increasing M32 or M16^N, with Ca2+; fit to a competitive single-site model with Kd of F-M16^N fixed at 2 μM
[3] = biological target: B4; assay: as above; remark: listed apart in the source
[4] = biological target: B4; assay: stopped-flow Quin-2 fluorescence (Ca2+ dissociation); S100A4 + Ca2+ premixed with peptide or fragment, mixed with 100 μM Quin-2; 100 mM NaCl, 10 mM Hepes, 100 μM Ca2+, pH 7.5, 20 °C (M16^N also in 20 mM NaCl, 20 mM Tris, 1 mM DTT); apparent
[5] = biological target: B4; assay: turbidity; as a12 in the presence of 250 μM M32 or 250 μM M16^N (competition for S100A4)
[6] = biological target: B4; assay: turbidity; Ca2+ dependence of the turbidity assay of M200 with S100A4; details in Supplementary Data
[7] = biological target: B4; assay: stopped-flow Quin-2 fluorescence (Ca2+ dissociation); S100A4 + Ca2+ premixed with peptide or fragment, mixed with 100 μM Quin-2; 100 mM NaCl, 10 mM Hepes, 100 μM Ca2+, pH 7.5, 20 °C (M16^N also in 20 mM NaCl, 20 mM Tris, 1 mM DTT); apparent; remark: listed apart in the source
[8] = biological target: B3; assay: turbidity; apparent absorbance at 300 nm, manual mixing; 5 μM M200 filaments in 100 mM NaCl, 10 mM Hepes, 0.1 mM Ca2+, pH 7.5, 20 °C; S100A4 added, then EGTA, then Ca2+

Binder B1 has a Kd (S100A4 (wild type)) of 440 nM.

In the case of B2, the Kd [1] is reported as > 100 µM, the “KD (model in which one M32 spans two S100A4 monomers)” value [2] is reported as 1.5 µM and the Kd [3] is reported as 3000 nM. It also gave a Kd [4] of 400 nM.

In the case of B3, the Kd [5] is reported as ~1 nM, the Kd [1] is reported as > 100 µM and the Kd [6] is reported as ≤ 3 nM. For the same binder, the koff [7] was < 0.3 s⁻¹.

With B4 the “stoichiometry N” value [8] was 2 S100A4 monomer per M200 polypeptide chain.
